Source: patent publication CN116836273A

Experiments:
[1] = molecular target: 血清淀粉样蛋白A (Serum amyloid A, SAA) (UniProt P0DJI8); experiment: BLI, antibody captured on AMC sensor, SAA in solution
[2] = molecular target: 血清淀粉样蛋白A (Serum amyloid A, SAA) (UniProt P0DJI8); experiment: indirect ELISA, SAA coated at 2 ug/ml, antibody at 15 ng/ml
[3] = molecular target: 血清淀粉样蛋白A (Serum amyloid A, SAA) (UniProt P0DJI8); experiment: indirect ELISA, SAA coated at 2 ug/ml, antibody at 30 ng/ml
[4] = molecular target: 血清淀粉样蛋白A (Serum amyloid A, SAA) (UniProt P0DJI8); experiment: indirect ELISA, SAA coated at 2 ug/ml, antibody at 60 ng/ml
[5] = molecular target: 血清淀粉样蛋白A (Serum amyloid A, SAA) (UniProt P0DJI8); experiment: indirect ELISA, SAA coated at 2 ug/ml, antibody at 7.5 ng/ml
[6] = molecular target: 血清淀粉样蛋白A (Serum amyloid A, SAA) (UniProt P0DJI8); experiment: indirect ELISA, SAA coated at 2 ug/ml, antibody at 3.75 ng/ml
[7] = molecular target: 血清淀粉样蛋白A (Serum amyloid A, SAA) (UniProt P0DJI8); experiment: indirect ELISA, SAA coated at 2 ug/ml, antibody at 0 ng/ml (blank)

UniProt P0DJI8, sequence (P0DJI8 19-122 limits assumed): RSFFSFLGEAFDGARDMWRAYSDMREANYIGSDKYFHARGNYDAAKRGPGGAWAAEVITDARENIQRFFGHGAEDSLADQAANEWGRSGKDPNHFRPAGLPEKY

Substance: 对照 (control antibody)
- Kd [1]: 7.98 nM
- koff [1]: 9.82e-05 s⁻¹
- kon [1]: 12300 M⁻¹ s⁻¹
- OD (OD450 (ref. 630 nm)) [2]: 0.912
- OD (OD450 (ref. 630 nm)) [3]: 1.63
- OD (OD450 (ref. 630 nm)) [4]: 1.79
- OD (OD450 (ref. 630 nm)) [5]: 0.562
- OD (OD450 (ref. 630 nm)) [6]: 0.316
- OD (OD450 (ref. 630 nm)) [7]: 0.009
